# Source: patent publication US20170298096A1 (CANIMGUIDE THERAPEUTICS, published 2017)
# No end group written: not given here.
# T1: His-tagged P3028 peptide (PGE73) (human)
# T1 construct: albumin-derived peptide, in solution at 0.5 ug/mL; not shown: His-tag
# T1 peptide: VFDEFKPLVEEPQNLIK
# T2: His-tagged P3028 (human, also: His-tag, terminus and sequence not given here)
# T2 construct: used in solution in the PEPSCAN (rampo) ELISA; also called PGE73; His-tag-P3028; not shown: His tag
# T2 peptide: VFDEFKPLVEEPQNLIK
# Biological target: T1, His-tagged P3028 peptide (PGE73)
# Assay: PEPSCAN ELISA, peptide on card
row,Binder,RAMPO Score
1,AKLDTFFVKLSLFTER [SEQ ID NO: 268 AKLDTFFVKLSLFTER],466
2,VKLDTFFVKLSLFTER [SEQ ID NO: 281 VKLDTFFVKLSLFTER],442
3,KKSDTFFVKLSLFTER [SEQ ID NO: 295 KKSDTFFVKLSLFTER],393
4,KKDDTFFVKLSLFTER [SEQ ID NO: 284 KKDDTFFVKLSLFTER],492
5,PKLDTFFVKLSLFTER [SEQ ID NO: 277 PKLDTFFVKLSLFTER],387
6,KKADTFFVKLSLFTER [SEQ ID NO: 282 KKADTFFVKLSLFTER],427
7,KKLDPFFVKLSLFTER [SEQ ID NO: 307 KKLDPFFVKLSLFTER],427
8,KKLETFFVKLSLFTER [SEQ ID NO: 299 KKLETFFVKLSLFTER],417
9,NKLDTFFVKLSLFTER [SEQ ID NO: 276 NKLDTFFVKLSLFTER],445
10,HKLDTFFVKLSLFTER [SEQ ID NO: 272 HKLDTFFVKLSLFTER],428
11,KKKDTFFVKLSLFTER [SEQ ID NO: 290 KKKDTFFVKLSLFTER],386
12,TKLDTFFVKLSLFTER [SEQ ID NO: 280 TKLDTFFVKLSLFTER],493
13,GKLDTFFVKLSLFTER [SEQ ID NO: 271 GKLDTFFVKLSLFTER],367
14,KKGDTFFVKLSLFTER [SEQ ID NO: 287 KKGDTFFVKLSLFTER],563
15,KKMDTFFVKLSLFTER [SEQ ID NO: 291 KKMDTFFVKLSLFTER],460
16,RKLDTFFVKLSLFTER [SEQ ID NO: 279 RKLDTFFVKLSLFTER],523
17,KKTDTFFVKLSLFTER [SEQ ID NO: 296 KKTDTFFVKLSLFTER],451
18,LKLDTFFVKLSLFTER [SEQ ID NO: 274 LKLDTFFVKLSLFTER],449
19,KKLATFFVKLSLFTER [SEQ ID NO: 298 KKLATFFVKLSLFTER],494
20,KKLDCFFVKLSLFTER [SEQ ID NO: 304 KKLDCFFVKLSLFTER],449
21,KKLDRFFVKLSLFTER [SEQ ID NO: 309 KKLDRFFVKLSLFTER],430

row,Binder,RAMPO Score
1,KKCDTFFVKLSLFTER [SEQ ID NO: 283 KKCDTFFVKLSLFTER],432
2,KKLDQFFVKLSLFTER [SEQ ID NO: 308 KKLDQFFVKLSLFTER],535
3,KKEDTFFVKLSLFTER [SEQ ID NO: 285 KKEDTFFVKLSLFTER],528
4,KKVDTFFVKLSLFTER [SEQ ID NO: 297 KKVDTFFVKLSLFTER],377
5,KKLITFFVKLSLFTER [SEQ ID NO: 300 KKLITFFVKLSLFTER],430
6,DKLDTFFVKLSLFTER [SEQ ID NO: 269 DKLDTFFVKLSLFTER],373
7,KKIDTFFVKLSLFTER [SEQ ID NO: 289 KKIDTFFVKLSLFTER],454
8,KKQDTFFVKLSLFTER [SEQ ID NO: 293 KKQDTFFVKLSLFTER],473
9,KKLYTFFVKLSLFTER [SEQ ID NO: 303 KKLYTFFVKLSLFTER],422
10,QKLDTFFVKLSLFTER [SEQ ID NO: 278 QKLDTFFVKLSLFTER],455
11,KKNDTFFVKLSLFTER [SEQ ID NO: 292 KKNDTFFVKLSLFTER],374
12,KKRDTFFVKLSLFTER [SEQ ID NO: 294 KKRDTFFVKLSLFTER],370
13,KKHDTFFVKLSLFTER [SEQ ID NO: 288 KKHDTFFVKLSLFTER],477
14,MKLDTFFVKLSLFTER [SEQ ID NO: 275 MKLDTFFVKLSLFTER],457
15,KKLDMFFVKLSLFTER [SEQ ID NO: 305 KKLDMFFVKLSLFTER],475
16,IKLDTFFVKLSLFTER [SEQ ID NO: 273 IKLDTFFVKLSLFTER],483
17,EKLDTFFVKLSLFTER [SEQ ID NO: 270 EKLDTFFVKLSLFTER],396
18,KKLWTFFVKLSLFTER [SEQ ID NO: 302 KKLWTFFVKLSLFTER],443
19,KKLDNFFVKLSLFTER [SEQ ID NO: 306 KKLDNFFVKLSLFTER],436
20,KKLVTFFVKLSLFTER [SEQ ID NO: 301 KKLVTFFVKLSLFTER],424
21,KKFDTFFVKLSLFTER [SEQ ID NO: 286 KKFDTFFVKLSLFTER],393

# Biological target: T2, His-tagged P3028
# Assay: PEPSCAN ELISA (rampo)
# Method: After washing, the peroxidase substrate 2,2′-azine-di-3-ethylbenzthiazoline sulfonate (ABTS) and 2 μL of 3% H2O2 were added. The binding capacity of the mAb was measured as a color development at 405 nm (optical density, OD405). The color development was quantified with a charge-coupled device (CCD)—camera and an image processing system.
# The OD405-values obtained by a CCD-camera was considered as raw data values (“rampo values,” “rampo units,” or “rampo scores”). […] First the CCD-camera made a picture of the card before peroxidase coloring and then again a picture after the peroxidase coloring. […] These values were copied into an excel file and labeled as a raw data file. One follow-up manipulation was allowed. Sometimes a well can contain an air-bubble resulting in a false-positive value. If manual inspection of the cards detect an air-bubble the value are set to 0 for that well.
Binder,rampo score relative to the P28R control sample,binding result
KKLDTFFVKLSLFNER [SEQ ID NO 382],≥ 98 % of P28R control,
KKLDTFFVKLSLFTET [SEQ ID NO 392],≥ 98 % of P28R control,
KKLDTFFVKLSLFTEK [SEQ ID NO 389],≥ 98 % of P28R control,
KKLDTFFVKLSLFSER [SEQ ID NO 384],≥ 98 % of P28R control,
KKLDTFFVKLSLFWER [SEQ ID NO 386],≥ 98 % of P28R control,
KKLDTFFVKLSLFTEY [SEQ ID NO 393],≥ 98 % of P28R control,
KKLDTFFVKLSLFVER [SEQ ID NO 385],≥ 98 % of P28R control,
KKLDTFFVKLSLFTEN [SEQ ID NO 390],≥ 98 % of P28R control,
KKLDTFFVKLSLFPER [SEQ ID NO 383],≥ 98 % of P28R control,
KKLDTFFVKLSLFTEF [SEQ ID NO 388],≥ 98 % of P28R control,
KKLDTFFVKLSLFTDR [SEQ ID NO 387],≥ 98 % of P28R control,
KKLDTFFVKLSFTER [SEQ ID NO 68],,binds
KKLDTFFVKLSLFTER [SEQ ID NO 391],≥ 98 % of P28R control,
KKLDTFVKLSLFTER [SEQ ID NO 65],,binds
KKLDTFFKLSLFTER [SEQ ID NO 66],,binds
FVKLSLFTER [SEQ ID NO 51],,binds
FVKL,,binds
KLSLFTER [SEQ ID NO 53],,binds
LDTFFVKLSLFTER [SEQ ID NO 47],,binds
FFVKLSLFTER [SEQ ID NO 50],,binds
VKLSLFTER [SEQ ID NO 52],,binds
KKLTFFVKLSLFTER [SEQ ID NO 64],,binds
DTFFVKLSLFTER [SEQ ID NO 48],,binds
KKFFVKLSLFTER [SEQ ID NO 76],,binds
TFFVKLSLFTER [SEQ ID NO 49],,binds
KKLDTFFVKLSLFTE [SEQ ID NO 34],,binds
KLDTFFVKLSLFTER [SEQ ID NO 46],,binds
